Here are results for one molecule from article PMC8980812, “Regulation of the activity of the bacterial histidine kinase PleC by the scaffolding protein PodJ” (The Journal of Biological Chemistry, 2022).

Data set [1] deals with the molecule itself. As to the kind of experiment: SEC; 3.2 mg/ml His-PodJ(1–635), Superdex 200 10/300 GL, 50 mM Tris-HCl pH 8.0, 300 mM KCl. On the technique in general: In gel filtration, larger molecules generally elute earlier.
Data set [2] concerns the target T1, PleC PAS AB-HK (Caulobacter crescentus).
T1 sequence (P37894 whole entry, looked up): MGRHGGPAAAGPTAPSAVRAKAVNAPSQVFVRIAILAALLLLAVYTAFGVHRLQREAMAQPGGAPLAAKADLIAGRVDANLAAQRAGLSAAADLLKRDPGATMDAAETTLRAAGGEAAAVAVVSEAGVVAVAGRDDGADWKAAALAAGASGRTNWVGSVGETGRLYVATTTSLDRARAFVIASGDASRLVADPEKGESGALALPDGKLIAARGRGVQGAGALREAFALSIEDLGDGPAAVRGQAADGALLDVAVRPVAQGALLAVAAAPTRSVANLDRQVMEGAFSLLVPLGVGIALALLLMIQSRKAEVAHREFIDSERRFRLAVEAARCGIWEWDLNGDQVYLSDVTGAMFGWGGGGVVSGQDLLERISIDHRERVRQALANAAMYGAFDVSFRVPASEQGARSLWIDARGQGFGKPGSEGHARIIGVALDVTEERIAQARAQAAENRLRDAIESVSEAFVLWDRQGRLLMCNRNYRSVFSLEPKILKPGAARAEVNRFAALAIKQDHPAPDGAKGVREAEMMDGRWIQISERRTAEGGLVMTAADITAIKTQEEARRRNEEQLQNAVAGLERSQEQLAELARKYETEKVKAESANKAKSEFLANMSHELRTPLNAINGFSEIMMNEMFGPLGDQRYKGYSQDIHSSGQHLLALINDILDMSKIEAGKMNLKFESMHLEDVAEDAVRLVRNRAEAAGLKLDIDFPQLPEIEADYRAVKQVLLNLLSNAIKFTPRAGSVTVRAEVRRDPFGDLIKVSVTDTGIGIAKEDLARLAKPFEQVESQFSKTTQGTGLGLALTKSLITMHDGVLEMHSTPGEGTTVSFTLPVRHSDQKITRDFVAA
As to the kind of experiment: cell-based or functional assay.

B1: His-PodJ(1–635) (domain or fragment, Caulobacter crescentus, UniProt Q9ZG88 1-635, looked up)
chain: MTAASPWSVKGIDPKAREVAKDLARRSGMTLGEWLNRMIIEGDGQTADPRLAGDDVPNRAYLEIVKDDAPPRIEIAEHPADEVGRVALALDRLTQRIEAAEGRNAAAITGIDHSVRDALTRLGASEREQIAVAARFEGAVDELKTEQARATERLRRIESEAAGPRSAEALRALEGALGKVAGHLYEGEARTREAIATLEAKLNQQSSGDPSALVEAVVARLGERLEAAETRTSDALRELGASFQALDQRLGAVETANPATGVQEGLDSLAATLTQKMEAARLEMAAKLRESADGRFDRMERKLGEMAAHVQAAEQRSAQAIERMGREIVGVADAFNRRVHAAESRNASAIEQVGGEVARIAASVEHKLNRADSVQAQALEKLGGEIARITEKLAERIGSAERRNALAIDDVGEQVARVTERLNQRHERSSQELVDRIRQSEERTLRMLEEAREKIDSRLSEAQRKLEAAPPSPPPAQAPAPVATAQRPVPPAASPFEDNYFSQAASFSTSEDEADAFDAPPAPARSFEVAEFPAAEPEEPAFAHDDYAIADGFEPESPRYEVEPEVSDFAPAEPSRPMSTRDIIEQARAAARAAAASEGKGGKAKSAKKEKASKASGSLFSGFGGFSTKKSKARL
notes: PodJ, Caulobacter crescentus, cytoplasmic domains without the transmembrane tether, residues 1–635; also called cytoplasmic portion of PodJ; source: E. coli Rosetta (DE3), plasmid pwz091, purified (HisTrap HP)
For the molecule B1, the binding result in data set [1] is listed as “binds”. Moreover, the “IC50 of the repression of the ADP production rate of 7.5 μM PleC PAS AB-HK with 1000 μM ATP (coupled enzyme assay), PodJ(1–635) 0-7.5 μM” value in data set [2] turned out to be 1.86 µM.
